Assay results from IntAct's records for PubMed 12819209.

B1: Prolactin receptor (Homo sapiens), P16471 (parent)
chain: MKENVASATVFTLLLFLNTCLLNGQLPPGKPEIFKCRSPNKETFTCWWRPGTDGGLPTNYSLTYHREGETLMHECPDYITGGPNSCHFGKQYTSMWRTYIMMVNATNQMGSSFSDELYVDVTYIVQPDPPLELAVEVKQPEDRKPYLWIKWSPPTLIDLKTGWFTLLYEIRLKPEKAAEWEIHFAGQQTEFKILSLHPGQKYLVQVRCKPDHGYWSAWSPATFIQIPSDFTMNDTTVWISVAVLSAVICLIIVWAVALKGYSMVTCIFPPVPGPKIKGFDAHLLEKGKSEELLSALGCQDFPPTSDYEDLLVEYLEVDDSEDQHLMSVHSKEHPSQGMKPTYLDPDTDSGRGSCDSPSLLSEKCEEPQANPSTFYDPEVIEKPENPETTHTWDPQCISMEGKIPYFHAGGSKCSTWPLPQPSQHNPRSSYHNITDVCELAVGPAGAPATLLNEAGKDALKSSQTIKSREEGKATQQREVESFHSETDQDTPWLLPQEKTPFGSAKPLDYVEIHKVNKDGALSLLPKQRENSGKPKKPGTPENNKEYAKVSGVMDNNILVLVPDPHAKNVACFEESAKEAPPSLEQNQAEKALANFTATSSKCRLQLGGLDYLDPACFTHSFH

Variants of: B1
Conditions: with 1433z_human YWHAZ

effect of a mutation on the interaction | Variant
decreasing interaction strength | T415A
decreasing interaction strength | C413A;S414A;T415A
